The target in experiment [1] is SDE-BBLF1-Flag (Epstein-Barr virus).
The target of experiment [2] is BBLF1-Flag (Epstein-Barr virus).

B1: BGLF2-GFP (natural protein)
chain: MASAANSSREQLRKFLNKECLWVLSDASTPQMKVYTATTAVSAVYVPQIAGPPKTYMNVTLIVLKPKKKPTYVTVYINGTLATVARPEVLFTKAVQGPHSLTLMYFGVFSDAVGEAVPVEIRGNPVVTCTDLTTAHVFTTSTAVKTVEELQDITPSEIIPLGRGGAWYAEGALYMFFVNMDMLMCCPNMPTFPSLTHFINLLTRCDNGECVTCYGAGAHVNILRGWTEDDSPGTSGTCPCLLPCTALNNDYVPITGHRALLGLMFKPEDAPFVVGLRFNPPKMHPDMSRVLQGVLANGKEVPCTAQPWTLLRFSDLYSRAMLYNCQVLKRQVLHSY
Take B1: the recruitment of BGLF2-GFP to the TGN (colocalisation with TGN46) in cotransfected A7 cells, confocal microscopy (% of transfected cells) in experiment [1] and in experiment [2] was 70 throughout.
